Results reported in paper PMC117612 (Molecular Biology of the Cell, 2002).

Molecular target: the molecule itself
Experiment: SDS-PAGE under nonreducing and reducing conditions with Western blot

B1: murine TSP2 secreted by dermal fibroblasts (conditioned medium) (natural protein)
chain: not shown
  stoichiometry N: 3
